Measurements from patent publication US20200206342A1.
pKd: −log10 of the molar value.

What was measured:
[1] = target: purified soluble 8his-tagged BG505 SOSIP.664 (T332N), wildtype (HIV-1 strain BG505); test: ELISA, his-tagged SOSIP on nickel-coated plate, peroxidase anti-human IgG-Fc, OD 630 nm
[2] = target: purified soluble 8his-tagged BG505-QES.i03.c01 SOSIP (HIV-1 strain BG505); test: ELISA, purified 8his SOSIP on nickel-coated plate
[3] = target: DU422 gp140 (surface-displayed ectodomain) (HIV-1 strain DU422); test: apparent dissociation constant, flow cytometry on Expi293F cells
[4] = target: BaL Env QES.i01 + I181L + V255M (QES.i01.c01) (HIV-1 strain BaL); test: flow cytometry titration on cells
[5] = target: Q842.d12 Env QES.i04 + I181L (QES.i04.I181L) (HIV-1 strain Q842.d12); test: flow cytometry titration on cells
[6] = target: Q769.d22 Env QES.i03 + V255M (QES.i03.V255M) (HIV-1 strain Q769.d22); test: flow cytometry titration on cells
[7] = target: DU422 Env V181L + V254T + V255M (QES.c03) (HIV-1 strain DU422); test: flow cytometry titration on cells
[8] = target: 25711 Env I181L + V254T (QES.c02) (HIV-1 strain 25711); test: flow cytometry titration on cells
[9] = target: purified soluble 8his-tagged BG505-QES.i03.c01 SOSIP (HIV-1 strain BG505); test: ELISA, his-tagged SOSIP on copper-coated plate, peroxidase anti-human IgG-Fc, OD 630 nm
[10] = target: purified soluble 8his-tagged BG505 SOSIP.664 (T332N), wildtype (HIV-1 strain BG505); test: as above
[11] = target: Q842.d12 Env P124D + F223Y + R557Q + I595M (Q842-QES.i04) (HIV-1 strain Q842.d12); test: flow cytometry titration on Expi293F cells
[12] = target: BaL Env T49D + P124D + I595M (BaL-QES.i01) (HIV-1 strain BaL); test: flow cytometry titration on Expi293F cells
[13] = target: BaL Env T49D + P124D + L663N (BaL-QES.i02) (HIV-1 strain BaL); test: flow cytometry titration on Expi293F cells
[14] = target: Q769.d22 Env A200E + F223Y + I595M (Q769-QES.i03) (HIV-1 strain Q769.d22); test: flow cytometry titration on Expi293F cells
[15] = target: BaL Env gp160 wildtype (HIV-1 strain BaL); test: apparent KD, flow cytometry titration on Expi293F cells
[16] = target: Q842.d12 Env P124D + F223Y + R557Q + I595M (Q842-QES.i04) (HIV-1 strain Q842.d12); test: as above
[17] = target: BaL Env T49D + P124D + I595M (BaL-QES.i01) (HIV-1 strain BaL); test: as above
[18] = target: Q842.d12 Env gp160 wildtype (HIV-1 strain Q842.d12); test: as above
[19] = target: BaL Env T49D + P124D + L663N (BaL-QES.i02) (HIV-1 strain BaL); test: as above
[20] = target: Q769.d22 Env A200E + F223Y + I595M (Q769-QES.i03) (HIV-1 strain Q769.d22); test: as above
[21] = target: Q769.d22 Env gp160 wildtype (HIV-1 strain Q769.d22); test: as above
K617Q = test: flow cytometry, 2 nM PG16, transfected Expi293F cells, percent of cells in the positive gate (Negative: 0.5 %, 0.5 %)
Y191I = test: as above
[22] = target: BaL Env gp160 wildtype (HIV-1 strain BaL); test: as above
C331I = test: as above
V36R = test: as above
F159V = test: as above
F223L = test: as above
D133W = test: as above
I491S = test: as above
E634A = test: as above
V208G = test: as above
W338A = test: as above
Q540V = test: as above
F93G = test: as above
S199C = test: as above
T248E = test: as above
I686R = test: as above
I201M = test: as above
W614A = test: as above
T319K = test: as above
I251S = test: as above
[23] = target: Q842.d12 Env gp160 wildtype (HIV-1 strain Q842.d12); test: flow cytometry titration, transfected cells expressing the Env
[24] = target: Q842.d12 Env P124D + F223Y + R557Q + I595M (Q842-QES.i04) (HIV-1 strain Q842.d12); test: flow cytometry, Expi293F cells

## CD4-IgG2 (Fc fusion)
[1]
  EC50 (read off the curve): 0.08 mg/L
[2]
  fold reduction of apparent affinity against wildtype: 5.5 fold

## PG16 (antibody)
[3]
  pKd: 8.30
[4]
  fold more PG16 bound at saturation against wildtype: < 5 fold
[5]
  fold more PG16 bound at saturation against wildtype: < 5 fold
[6]
  fold more PG16 bound at saturation against wildtype: < 5 fold
[7]
  fold more PG16 bound at saturation against wildtype: < 5 fold
[8]
  fold more PG16 bound at saturation against wildtype: < 5 fold
[9]
  EC50 (read off the curve): 0.2 nM
[10]
  EC50 (read off the curve): 0.4 nM
[11]
  fold increase in PG16 binding signal at saturation against wildtype: 2.4 fold
[12]
  fold increase in PG16 binding at saturation against wildtype: 1.6 fold
[13]
  fold increase in PG16 binding at saturation against wildtype: 1.6 fold
[14]
  fold higher binding at saturation against wildtype: 2.7 fold
[15]
  pKd: 8.40
[16]
  pKd: 8.30
[17]
  pKd: 8.92
[18]
  pKd: 8.47
[19]
  pKd: 8.85
[20]
  pKd: 8.43
[21]
  pKd: 8.30
K617Q
  percent positive cells (first of two replicates): 15%
  percent positive cells (second of two replicates): 14.8%
Y191I
  percent positive cells (first of two replicates): 1.9%
  percent positive cells (second of two replicates): 1.9%
[22]
  percent positive cells (first of two replicates): 38%
  percent positive cells (second of two replicates): 36.2%
C331I
  percent positive cells (first of two replicates): 1.4%
  percent positive cells (second of two replicates): 1.9%
V36R
  percent positive cells (first of two replicates): 2.1%
  percent positive cells (second of two replicates): 2.6%
F159V
  percent positive cells (first of two replicates): 1.4%
  percent positive cells (second of two replicates): 1.7%
F223L
  percent positive cells (first of two replicates): 11.2%
  percent positive cells (second of two replicates): 10.7%
D133W
  percent positive cells (first of two replicates): 16%
  percent positive cells (second of two replicates): 16%
I491S
  percent positive cells (first of two replicates): 1.3%
  percent positive cells (second of two replicates): 2.1%
E634A
  percent positive cells (first of two replicates): 11.1%
  percent positive cells (second of two replicates): 9.3%
V208G
  percent positive cells (first of two replicates): 21.6%
  percent positive cells (second of two replicates): 22.5%
W338A
  percent positive cells (first of two replicates): 1.3%
  percent positive cells (second of two replicates): 2%
Q540V
  percent positive cells (first of two replicates): 2.4%
  percent positive cells (second of two replicates): 3%
F93G
  percent positive cells (first of two replicates): 1.4%
  percent positive cells (second of two replicates): 2.1%
S199C
  percent positive cells (first of two replicates): 1.2%
  percent positive cells (second of two replicates): 1.6%
T248E
  percent positive cells (first of two replicates): 1.1%
  percent positive cells (second of two replicates): 2%
I686R
  percent positive cells (first of two replicates): 5%
  percent positive cells (second of two replicates): 5.9%
I201M
  percent positive cells (first of two replicates): 29.5%
  percent positive cells (second of two replicates): 29.8%
W614A
  percent positive cells (first of two replicates): 1.2%
  percent positive cells (second of two replicates): 2.1%
T319K
  percent positive cells (first of two replicates): 20.3%
  percent positive cells (second of two replicates): 18.8%
I251S
  percent positive cells (first of two replicates): 6.1%
  percent positive cells (second of two replicates): 4.2%

## PGT145 (antibody)
[23]
  EC50 (read off the curve): 0.5 nM

## VRC01 (antibody)
[9]
  EC50 (read off the curve): 1 nM
[10]
  EC50 (read off the curve): 1 nM

## soluble CD4 sCD4-183 (domains D1-D2) (from UniProt P01730 26-208) (receptor)
[3]
  pKd: 7.74
[24]
  fold increase in soluble CD4 binding against wildtype: 3 fold
